# Data published in publication PMC9468356, “Kinetic compartmentalization by unnatural reaction for itaconate production” (Nature Communications, 2022).
# How the values were obtained:
# HPLC end-point assay [1] = substrate: CC(C(=O)O)C(O)(CC(=O)O)C(=O)O; assay: HPLC end-point assay; type: biochemical, Escherichia coli; details: 2 mM Tris-HCl, 37 °C, 10 min, 0.1-1 mM substrate
# Source text: (§1) HPLC end-point assay on PrpD
# HPLC end-point assay [2] = substrate: O=C(O)/C=C(/CC(=O)O)C(=O)O; assay: HPLC end-point assay; type: biochemical, Escherichia coli; details: 2 mM Tris-HCl, 37 °C, 10 min, 0.05-1.0 mM substrate
# Source text: as §1
Protein,Km (HPLC end-point assay [1]) [µM],kcat (HPLC end-point assay [1]) [s⁻¹],kcat/Km (HPLC end-point assay [1]) [M⁻¹ s⁻¹],Km (HPLC end-point assay [2]) [µM],kcat (HPLC end-point assay [2]) [s⁻¹],kcat/Km (HPLC end-point assay [2]) [M⁻¹ s⁻¹]
"PrpD (Escherichia coli K-12; G111T/W110V) (protein, 6xHis-tagged, cloned from E. coli W into pACYCduet-1, purified anaerobically by His-tag kit) SAQINNIRPEFDREIVDIVDYVMNYEISSKVAYDTAHYCLLDTLGCGLEALEYPACKKLLGPIVPGTVVPNGVRVPGTQFQLDPVQAAFNIGAMIRWLDFNDTWLAAEVTHPSDNLGGILATADWLSRNAVASGKAPLTMKQVLTAMIKAHEIQGCIALENSFNRVGLDHVLLVKVASTAVVAEMLGLTREEILNAVSLAWVDGQSLRTYRHAPNTGTRKSWAAGDATSRAVRLALMAKTGEMGYPSALTAPVWGFYDVSFKGESFRFQRPYGSYVMENVLFKISFPAEFHSQTAVEAAMTLYEQMQAAGKTAADIEKVTIRTHEACIRIIDKKGPLNNPADRDHCIQYMVAIPLLFGRLTAADYEDNVAQDKRIDALREKINCFEDPAFTADYHDPEKRAIANAITLEFTDGTRFEEVVVEYPIGHARRRQDGIPKLVDKFKINLARQFPTRQQQRILEVSLDRARLEQMPVNEYLDLYVI",1930 ± 210,0.023 ± 0.008,12 ± 6,1720 ± 250,172 ± 20,101000 ± 3180
"PrpD (Escherichia coli K-12; G111T/I331L/W110V) (protein, 6xHis-tagged, cloned from E. coli W into pACYCduet-1, purified anaerobically by His-tag kit) SAQINNIRPEFDREIVDIVDYVMNYEISSKVAYDTAHYCLLDTLGCGLEALEYPACKKLLGPIVPGTVVPNGVRVPGTQFQLDPVQAAFNIGAMIRWLDFNDTWLAAEVTHPSDNLGGILATADWLSRNAVASGKAPLTMKQVLTAMIKAHEIQGCIALENSFNRVGLDHVLLVKVASTAVVAEMLGLTREEILNAVSLAWVDGQSLRTYRHAPNTGTRKSWAAGDATSRAVRLALMAKTGEMGYPSALTAPVWGFYDVSFKGESFRFQRPYGSYVMENVLFKISFPAEFHSQTAVEAAMTLYEQMQAAGKTAADIEKVTIRTHEACIRLIDKKGPLNNPADRDHCIQYMVAIPLLFGRLTAADYEDNVAQDKRIDALREKINCFEDPAFTADYHDPEKRAIANAITLEFTDGTRFEEVVVEYPIGHARRRQDGIPKLVDKFKINLARQFPTRQQQRILEVSLDRARLEQMPVNEYLDLYVI",1960 ± 210,0.024 ± 0.008,13 ± 5,720 ± 100,81.8 ± 14.1,114000 ± 14600
"PrpD (Escherichia coli K-12) (protein, 6xHis-tagged, cloned from E. coli W into pACYCduet-1, purified anaerobically by His-tag kit) SAQINNIRPEFDREIVDIVDYVMNYEISSKVAYDTAHYCLLDTLGCGLEALEYPACKKLLGPIVPGTVVPNGVRVPGTQFQLDPVQAAFNIGAMIRWLDFNDTWLAAEWGHPSDNLGGILATADWLSRNAVASGKAPLTMKQVLTAMIKAHEIQGCIALENSFNRVGLDHVLLVKVASTAVVAEMLGLTREEILNAVSLAWVDGQSLRTYRHAPNTGTRKSWAAGDATSRAVRLALMAKTGEMGYPSALTAPVWGFYDVSFKGESFRFQRPYGSYVMENVLFKISFPAEFHSQTAVEAAMTLYEQMQAAGKTAADIEKVTIRTHEACIRIIDKKGPLNNPADRDHCIQYMVAIPLLFGRLTAADYEDNVAQDKRIDALREKINCFEDPAFTADYHDPEKRAIANAITLEFTDGTRFEEVVVEYPIGHARRRQDGIPKLVDKFKINLARQFPTRQQQRILEVSLDRARLEQMPVNEYLDLYVI",960 ± 850,0.045 ± 0.025,75 ± 54,700 ± 100,119 ± 13.4,171000 ± 5650
"PrpD (Escherichia coli K-12; I331L/W110V) (protein, 6xHis-tagged, cloned from E. coli W into pACYCduet-1, purified anaerobically by His-tag kit) SAQINNIRPEFDREIVDIVDYVMNYEISSKVAYDTAHYCLLDTLGCGLEALEYPACKKLLGPIVPGTVVPNGVRVPGTQFQLDPVQAAFNIGAMIRWLDFNDTWLAAEVGHPSDNLGGILATADWLSRNAVASGKAPLTMKQVLTAMIKAHEIQGCIALENSFNRVGLDHVLLVKVASTAVVAEMLGLTREEILNAVSLAWVDGQSLRTYRHAPNTGTRKSWAAGDATSRAVRLALMAKTGEMGYPSALTAPVWGFYDVSFKGESFRFQRPYGSYVMENVLFKISFPAEFHSQTAVEAAMTLYEQMQAAGKTAADIEKVTIRTHEACIRLIDKKGPLNNPADRDHCIQYMVAIPLLFGRLTAADYEDNVAQDKRIDALREKINCFEDPAFTADYHDPEKRAIANAITLEFTDGTRFEEVVVEYPIGHARRRQDGIPKLVDKFKINLARQFPTRQQQRILEVSLDRARLEQMPVNEYLDLYVI",1720 ± 540,0.035 ± 0.009,21 ± 2,1520 ± 80,96.3 ± 4.55,63600 ± 3330
